# Results reported in patent US12458688B2, “Epitopes” (Scancell Limited, priority 2018, dated 2025).
# Where no end group is shown, it is not given here. [ ]: non-standard residue; d: D form. hCit = NC(=O)NCCCC[C@H](N)C(=O)O
# T1: HLA-DP4 (Homo sapiens, UniProt P04440+P20036)
# T1 sequence (P20036 29-260): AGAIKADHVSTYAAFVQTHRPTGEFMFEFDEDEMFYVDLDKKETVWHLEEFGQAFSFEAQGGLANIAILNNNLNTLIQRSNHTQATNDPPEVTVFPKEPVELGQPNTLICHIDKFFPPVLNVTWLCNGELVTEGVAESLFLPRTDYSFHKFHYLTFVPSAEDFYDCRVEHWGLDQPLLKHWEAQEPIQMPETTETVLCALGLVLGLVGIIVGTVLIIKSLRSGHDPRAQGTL
# T1 sequence (P04440 30-258): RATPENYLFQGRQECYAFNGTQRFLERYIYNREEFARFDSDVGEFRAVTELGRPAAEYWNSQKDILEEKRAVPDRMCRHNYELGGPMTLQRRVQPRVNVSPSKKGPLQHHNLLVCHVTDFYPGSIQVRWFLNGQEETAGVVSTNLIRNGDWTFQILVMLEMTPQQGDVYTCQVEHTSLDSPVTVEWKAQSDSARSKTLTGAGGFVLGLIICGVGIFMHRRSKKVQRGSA
# What was measured:
# HLA-DP4 (human) = experiment: DP4 competition ELISA; competitor biotinylated Hep B peptide; 5 fold excess of unlabelled peptide
# HLA transgenic mice = experiment: T cell response to Hcit peptides in HLA transgenic mice (screening, ex vivo ELISpot); set-up: species or system mouse; conditions: yes/no; Hcit peptide with CpG/MPLA
# Method: (§1) C57BL/6 mice (Charles River, UK), HLA-DR4 mice (Model #4149, Taconic, USA), HLA-A2/DR1 (HHDII/DR1, Pasteur Institute), HLA-A2.1+/+HLA-DP4+/+hCD4+/+ (HLA-HHDII/DP4) transgenic mice (EM: 02221, European Mouse Mutant Archive) described in patent WO2013/017545 A1 (EMMA repository, France) were used, aged between 8 and 12 weeks. Peptides were dissolved in PBS to 1 mg/ml and then emulsified (a series of dilutions) with CpG ODN 1826 and MPLA 6 μg/mouse of each (Invivogen, UK). Peptides (25 μg/mouse) were injected subcutaneously at the base of the tail. Mice were immunised at days 1, 7 and 14 for peptide immunisation. Spleens were removed for analysis at day 21 unless stated otherwise.
# (§2) ELISpot assays were performed using murine IFNγ, IL-17 and IL-10 capture and detection reagents according to the manufacturer's instructions (Mabtech, Sweden). In brief, anti-IFNγ, IL-17 and IL-10 specific antibodies were coated onto wells of 96-well Immobilin-P plate. Synthetic peptides (at various concentrations) and 5×10^5 per well splenocytes were added to wells of the plate in quadruplicate Tumour target cells were added where relevant at 5×10^4/well in triplicate and plates incubated for 40 hrs at 37° C. After incubation, captured IFNγ, IL-10 and IL-17 were detected by biotinylated anti-IFNγ, IL-10 and IL-17 antibodies and developed with a streptavidin alkaline phosphatase and chromogenic substrate. Lipopolysaccharide (LPS; 5 μg/ml) was used as a positive control. For MHC blocking studies, anti-CD4 blocking antibody (GK1.5) or anti-CD4 blocking antibody (RPA-T4) for HHDII/DP4 mice which express human CD4 and anti-CD8 blocking antibody (2.43) from Bioxcell were used at 20 μg/ml. Spots were analysed and counted using an automated plate reader (Cellular Technologies Ltd).
# (§3) Screening was performed to identify potential homocitrullinated vimentin epitopes in mice. Mice were immunised with pools of homocitrullinated peptides. […] Each pool was administered as three immunisations containing 20 μg of each peptide and CpG/MPLA as an adjuvant on day 1, 8 and 15. On day 21 the mice were culled and the immune responses to each peptide within the immunising pool were assessed by ex vivo ELISpot. Given that different mouse strains have different MHC repertoires a number of strains were used for screening. Peptide responses were assessed in transgenic strains expressing human DR4 or HHDII/DR1 in a C57BL/6 background (see methods).
# (§4) Screening was performed to identify potential homocitrullinated ALDOA epitopes in transgenic HHDII/DP4 and HHDII/DR1 mice. Mice were immunised with pools of human homocitrullinated peptides. […] Each pool was administered as three immunisations containing 20 μg of each peptide and CpG/MPLA as an adjuvant. After 21 days the mice were culled and the immune responses to each peptide within the immunising pool were assessed by ex vivo ELISpot in HHDII/DP4 (FIG. 4b) and HHDII/DR1 mice (FIG. 4d).
# as §4, with “Using this combination of predictions, 5 CyK8 peptides containing homocitrulline were synthesised (Table 4). Screening” for “Screening”, “Cyk8” for “ALDOA”, “HHDII/DP4.” for “HHDII/DP4 and HHDII/DR1 mice.”, “10a).” for “4b) and HHDII/DR1 mice (FIG. 4d).”
# HLA-DP4 = target: T1, HLA-DP4; experiment: DP4 competition assay with biotinylated Hep B peptide; conditions: inhibition of biotinylated Hep B binding to HLA-DP4; 5 fold excess test peptide, equal amount for unlabelled Hep B
# Method: 2×T175 gave 2.5×10^7 B16 HHDII/DP4 (B16F1 β2M H2Ab1 dKO A35 HHDII/DP4 H7/2E9/F9 p14) cells. This was enough for 5 preps using the following protocol with Mem-PER™ Plus Membrane Protein Extraction Kit (thermo-scientific cat #89842).
# 5×10^6 cells were resuspended in the growth media by scraping the cells off the surface of the plate with a cell scraper and then centrifuged at 300 g for 5 mins. The cell pellet was washed with 3 ml of Cell Wash Solution and centrifuged at 300 g for 5 mins. The supernatant was removed and discarded. The cells were resuspended in 1.5 ml of Cell Wash Solution and transfer to a 2 ml centrifuge tube and centrifuged at 300 g for 5 mins. The supernatant was discarded. 0.75 ml of permeabilization buffer was added to the cell pellet and vortexed briefly to obtain a homogeneous cell suspension and incubated for 10 mins at 4° C. with constant mixing. The permeabilized cells were centrifuge for 15 mins at 16,000g before carefully removing the supernatant containing cytosolic proteins and transfering to a new tube. 0.5 ml of solubilization buffer was added to the pellet and resuspend prior to incubating at 4° C. for 30 minutes with constant mixing prior to centrifugation at 16,000g for 15 mins at 4° C. The supernatant containing solubilized membrane and membrane-associated proteins was transfered to a new tube. Aliquots were frozen at −80° C. for future use. 12.5 μl Halt™ Protease and Phosphatase Inhibitor Cocktail, EDTA-free (100X) thermo-scientific (Catalog number 78445) was added prior to freezing.
# High binding plates were coated with streptavidin (Sigma S4762 at 1 mg/ml) 1/500 in PBS and incubated overnight at 4° C. The plates were blocked with 1% BSA in PBS for 4 hrs at room temp and washed 3×PBS/0.5% Tweenx. 450 μl of cell prep lysate (B16F1 B16 HHDII/DP4 H7/2E9/F9) was mixed with 50 μg test peptide (see below) or 10 μg of unlabelled Hep B peptide for 30 mins. 10 μg biotinylated Hep B peptide was added & incubated for 4 hrs at 37° C.:
# Lysate/peptide mix was added to the plates at 100 μl/well and incubated for 4 hrs at room temperature. Plates were washed 3× with PBS/0.5% Tween. 100 μl per well of Leinco anti-Human HLA-DP4 clone B7/21 #H260 1 mg/ml at 1/500 dilution in 1% BSA/PBS was added and incubated for 1 hr at room temperature prior to washing 3× PBS/0.5% Tween. Goat anti-mouse lgG3-HRP at 0.5 mg/ml 1/500 100 μl per well (Invitrogen #M32607) diluted in 1% BSA/PBS) was added for 1 hr at room temperature prior to washing and adding 150 μl of TMB substrate to each well. The reaction was stopped with 50 μl of 2N H2SO4 and plates read plate at 450 nm.
# To ensure that the biotinylation of Hep B had not interfered with its binding, HLA-DP4 was incubated with equal amounts of biotinylated and unlabelled Hep B peptide. Unlabelled peptide competed equally reducing binding by 47% (FIG. 53b).
# The biotinylated HepB peptide was then incubated with a 5 fold excess of the unlabelled homocitrulline peptides. All peptides inhibited the binding of biotinylated Hep B to HLA-DP4 but to varying levels (FIG. 53c-e).
# HLA-DR4 mice = experiment: Ex vivo IFNγ ELISpot after peptide immunisation, HLA-DR4 mice; type: in vivo, mouse
# Method: as §1, §2, §3
# HLA-HHDII/DR1 mice = experiment: Ex vivo IFNγ ELISpot after peptide immunisation, HHDII/DR1 mice; type: in vivo, mouse
# Method: as §1, §2
# as §3, with “methods). […]” for “methods).”
# The five selected homocitrullinated Cyk8 peptides were also screened in HHDII/DR1 transgenic mice. […] Response to Cyk8 112Hcit peptide in the HHDII/DR1 mice was lost in the presence of CD8 blocking antibody but less effect of the CD4 blocking antibody was seen (FIG. 12b). […] Responses to homocitrullinated Cyk8 peptides show both CD4 and CD8 mediated responses.
# B16F1 HHDII/DR1 tumours = experiment: Tumour therapy, B16F1 HHDII/DR1 tumour in HHDII/DR1 mice; type: in vivo, mouse; conditions: peptide with CpG/MPLA days 4, 11, 18
# Text: To determine if the epitopes that stimulate T cell responses are presented on MHC-II within the tumour environment, our homocitrullinated peptides were checked for tumour therapy in B16 tumour models. Mice were implanted with tumour cells on day 1 and then immunised with peptides and CpG/MPLA on days 4, 11 and 18.
# HHDII/DR1 (FIG. 19a) or DR4 (FIG. 19b) transgenic mice were challenged with B16F1 HHDII/DR1 or B16F1 DR4 tumours respectively prior to immunisation with vimentin 116-135Hcit peptide and tumour growth and survival were monitored.
# HHDII/DR1 mice were implanted with B16HHDII/DR1 tumour cells on day 1 and then immunised with Cyk8 371Hcit, 112hcit or both peptides and CpG/MPLA on days 4, 11 and 18.
# [1] = 3 immunisations with CpG/MPLA, day 21
molecule,measurement,setting,value
Aldolase A 74-93 WT (peptide),% inhibition,HLA-DP4 (human),27%
Aldolase A 140-157 WT (peptide),% inhibition,HLA-DP4 (human),29%
Aldolase A 238-256 Hcit (peptide),% inhibition,HLA-DP4 (human),73%
Cytokeratin 8 182-202 Hcit (peptide),% inhibition,HLA-DP4 (human),61%
Cytokeratin 8 371-388 Hcit (peptide),% inhibition,HLA-DP4 (human),72%
EAEEWY-Hcit-S-Hcit-FADLSEAAN [Vimentin 286-303 Hcit],T cell response,HLA transgenic mice,no
"GFFLLTRILTIPQ [HepB, reference compound]",% inhibition,HLA-DP4,47%
"IGGVILFHETLYQKADDGRP [Aldolase A 74-93 WT, reference compound]",% inhibition,HLA-DP4,27%
"KDGADFAKWRCVLKIGEH [Aldolase A 140-157 WT, reference compound]",% inhibition,HLA-DP4,29%
KVRFLEQQN-Hcit-LLAE [Vimentin 120-134 Hcit],cross reactivity of vimentin 116-135 Hcit response to shorter Hcit peptide,HLA-DR4 mice,Cross reactivity was seen
same,cross reactivity of vimentin 116-135 Hcit response to shorter Hcit peptide,HLA-HHDII/DR1 mice,Cross reactivity was seen
LPLVDTHS-Hcit-RTLL-Hcit-TVETRDGQV [Vimentin 431-454 Hcit],T cell response,HLA transgenic mice,no
LSDHHVYLEGTLL-hcit-PNMVT (LSDHHVYLEGTLL[hCit]PNMVT) [Aldolase A 217-235 Hcit],% inhibition,HLA-DP4,84%
same,T cell response,HLA transgenic mice,no
"NYIDKVRFLEQQNKILLAEL [Vim 116-135 WT, unmodified wild type vimentin 116-135 peptide, reference compound]",IFNγ ELISpot response,HLA-DR4 mice; [1],failed to induce any responses
same,% inhibition,HLA-DP4,48%
same,IFNγ ELISpot response,HLA-HHDII/DR1 mice; [1],failed to induce any responses
same,anti-tumour response / survival vs control,B16F1 HHDII/DR1 tumours,did not show a significant anti-tumour response
QIDVDVS-Hcit-PDLTAALRDVRQQ [Vimentin 255-275 Hcit],T cell response,HLA transgenic mice,no
Vimentin 116-135 WT (peptide),% inhibition,HLA-DP4 (human),48%
hcit-CPLL-hcit-PWALTFSYGRALQ ([hCit]CPLL[hCit]PWALTFSYGRALQ) [Aldolase A 289-307 Hcit],% inhibition,HLA-DP4,45%
same,T cell response,HLA transgenic mice,no
[hCit]CPLL[hCit]PWALTFSYGRALQ [Aldolase A 289-307 Hcit],% inhibition,HLA-DP4 (human),45%
[hCit]DGADFA[hCit]WRCVL[hCit]IGEH [Aldolase A 140-157 Hcit],% inhibition,HLA-DP4 (human),76%
LEQQN[hCit]MLET[hCit]WSLLQQQ[hCit]T [Cytokeratin 8 112-131 Hcit],% inhibition,HLA-DP4 (human),64%
LSDHHVYLEGTLL[hCit]PNMVT [Aldolase A 217-235 Hcit],% inhibition,HLA-DP4 (human),84%
NYID[hCit]VRFLEQQN[hCit]ILLAEL [Vimentin 116-135 Hcit],% inhibition,HLA-DP4 (human),44%
[hCit]LALDIEIATYR[hCit]LLEGEE [Cytokeratin 8 381-399 Hcit],% inhibition,HLA-DP4 (human),60%
IGGVILFHETLYQ[hCit]ADDGRP [Aldolase A 74-93 Hcit],% inhibition,HLA-DP4 (human),69%
KFASFID[hCit]VRFLEQQN[hCit]MLE [Cytokeratin 8 101-120 Hcit],% inhibition,HLA-DP4 (human),71%
